Molecular target: T1, p47^PHOX (83-390) (UniProt P14598 83-390)
T1 construct: p47^PHOX residues 83-390 (the first 82 amino acids deleted from the GST-p47^PHOX construct); Made from the GST-p47^PHOX construct (pGEX-6P-3); also called truncated p47^PHOX; p47^PHOX truncated at position 82; source: E. coli (BL21), purified with glutathione sepharose beads
T1 sequence (looked up): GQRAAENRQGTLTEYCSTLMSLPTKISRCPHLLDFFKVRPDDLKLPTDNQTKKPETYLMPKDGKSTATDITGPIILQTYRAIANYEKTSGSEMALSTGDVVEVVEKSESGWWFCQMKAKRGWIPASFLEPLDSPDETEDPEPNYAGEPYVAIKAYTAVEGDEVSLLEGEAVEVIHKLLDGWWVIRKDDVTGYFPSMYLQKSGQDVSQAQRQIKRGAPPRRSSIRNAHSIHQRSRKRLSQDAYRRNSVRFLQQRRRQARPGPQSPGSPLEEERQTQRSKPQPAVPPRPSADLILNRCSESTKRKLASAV
Experiment: pull-down; 214 nM p47^PHOX proteins with 286 nM GST or GST-p22^PHOX (132-195), 30 min at 4 °C in PBS pH 7.4, 0.1% Triton X-100; glutathione sepharose beads 1 h at 4 °C, eluted with 10 mM glutathione, immunoblot with anti-p47^PHOX
Conditions: both partners purified

B1: GST-p22^PHOX (132-195) (domain or fragment, UniProt P13498 132-195, looked up)
chain: TPIEPKPRERPQIGGTIKQPPSNPPPRPPAEARKKPSEEEAAVAAGGPPGGPQVNPIPVTDEVV
notes: p22^PHOX residues 132-195
B1: binds.
